Experimental data: US11384119B2, “Compositions and methods for inhibiting CD279 interactions” (priority 2015, dated 2022)

Legend:
tumour cell line LL/2 = test: In vivo LL/2 tumour model in C57Bl/6 mice; conditions: 200 mg/kg IP for 7 days
Method: More particularly, mice strain C57Bl/6 (male, 4-weeks, initial body weight˜20-22 g) were inoculated with tumour cell line LL/2, at S.C. 10^5 per mouse. After 14 days post-implantation, the mice were treated with D-TW or D-TW-Scrambled for 7 days (at 200 mg/kg), via intraperitoneal (IP) injection.

[1] = molecular target: T1, human PD-L1 (PD-1/PD-L1 interaction) (Homo sapiens, UniProt Q9NZQ7); test: Competition ELISA: peptide blocking of recombinant human PD-1 Fc binding to plate-coated human PD-L1 Fc; conditions: peptide 0.008 μg/ml to 10 μg/ml, human PD-1 Fc 10 ng/ml; FIG. 1
T1 construct: Fc
Method: The binding of the WT or TF peptide to human PD-L1 was tested via competition ELISA. Varying concentrations of each peptide (0.008 μg/ml to 10 μg/ml) were mixed with a fixed concentration of recombinant human PD-1 Fc (10 ng/ml) and bound to a human PD-L1 Fc coated 96-well Immuno Maxisorp flat bottom plate. Binding was detected via a biotinylated anti-PD-1 antibody, streptavidin-horseradish peroxidase (HRP), and 3,3′,5,5′-Tetramethylbenzidine (TMB) substrate. Absorbance measurements were collected at 450 nm via a plate reader. The absorbance readings were plotted against the test peptide concentration.
More particularly, in this Example and referring to FIGS. 5A and 5B, WT represents SEQ ID NO:1; TF represents SEQ ID NO:2; ET represents SEQ ID NO:25; YT represents SEQ ID NO:28; and TW represents the reverse sequence of WT with D-amino acids, SEQ ID NO:34 (also referred to herein as “D-TW”). Different combination of such PD-L1 blocking peptides (3 and 10 μM) were mixed with recombinant human PD-1 Fc and bound to a human PD-L1 Fc coated 96-well Immuno Maxisorp flat bottom plate. Binding was detected via a biotinylated anti-PD-1 antibody, streptavidin-horseradish peroxidase (HRP), and 3,3′,5,5′-Tetramethylbenzidine (TMB) substrate. Absorbance measurements were collected at 450 nm via a plate reader. […]

PD-1/PD-L1 interaction [2] = molecular target: T2, PD-1/PD-L1 interaction (Homo sapiens, UniProt Q9NZQ7); test: IL-2 production by PHA/PMA-activated Jurkat T cells co-cultured with recombinant human PD-L1 Fc (IL-2 ELISA); type: cell-based; set-up: Fc; host or cells: Jurkat T cells (PD-1 side); conditions: 1-10 μg/ml peptide, PD-L1 Fc 8 μg/ml, 37° C. for 48 hours; FIG. 2
Method: 5×10^4 Jurkat T cells were activated with 1 μg/ml of phytohemagglutinin (PHA) and 50 ng/ml of phorbol 12-myristate 13-acetate (PMA) and co-cultured with recombinant human PD-L1 Fc (8 μg/ml) plus 1-10 μg/ml of WT (FIG. 2A), 1-10 μg/ml of TF (FIG. 2B), or 1-10 μg/ml of combined WT and TF (FIG. 2C) peptide at 37° C. for 48 hours. Cell culture supernatant was harvested and interleukin-2 (IL-2) production from Jurkat T cells was assessed by IL-2 ELISA. The numbers shown above each bar in FIG. 2 represent IL-2 concentrations.
Target sequence in this assay (Q9NZQ7 19-238 limits assumed): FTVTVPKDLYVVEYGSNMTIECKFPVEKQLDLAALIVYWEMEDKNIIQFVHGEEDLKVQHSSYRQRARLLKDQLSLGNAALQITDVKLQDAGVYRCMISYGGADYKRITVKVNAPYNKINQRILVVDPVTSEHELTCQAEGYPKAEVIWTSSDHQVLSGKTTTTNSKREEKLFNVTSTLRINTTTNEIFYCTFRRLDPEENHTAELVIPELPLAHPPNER

PD-1/PD-L1 interaction [3] = molecular target: T2, PD-1/PD-L1 interaction; test: IL-2 production by activated Jurkat T cells co-cultured with PD-L1-expressed U87 tumor cells (IL-2 ELISA); type: cell-based; set-up: endogenous in cells; host or cells: U87 tumor cells (PD-L1); Jurkat T cells (PD-1); conditions: for IL-2 concentration: different peptide concentrations, 37° C. for 48 hours, FIGS. 3A-3C; for blocking of PD-1/PD-L1 interaction (summary of the foregoing assay results): summary of FIGS. 1-3, the combination is compared with a single test peptide treatment
Method: In this Example, 5×10^4 Jurkat T cells were activated with […] of PHA and 50 ng/ml of PMA and co-cultured with 3×10^5 PD-L1-expressed U87 tumor cells mixed with different concentrations of WT (FIG. 3A), TF (FIG. 3B), or combined WT and TF (FIG. 3C) peptide at 37° C. for 48 hours. Cell culture supernatants were harvested and IL-2 production from the Jurkat T cells was assessed by IL-2 ELISA. The numbers shown above each bar in FIGS. 3A-3C represent IL-2 concentrations. […] Moreover, as shown in FIGS. 3A-3C, as the concentrations of the test peptides were increased, an increase in IL-2 concentration was observed.
Target sequence in this assay (Q9NZQ7 19-290): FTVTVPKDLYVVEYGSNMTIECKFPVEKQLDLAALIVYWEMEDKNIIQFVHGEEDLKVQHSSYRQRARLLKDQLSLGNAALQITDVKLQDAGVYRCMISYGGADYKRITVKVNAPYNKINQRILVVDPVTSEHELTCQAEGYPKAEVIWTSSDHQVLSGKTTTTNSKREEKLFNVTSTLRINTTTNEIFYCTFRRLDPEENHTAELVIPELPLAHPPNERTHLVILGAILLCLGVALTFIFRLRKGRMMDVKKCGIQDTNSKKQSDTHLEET

T1 sequence (Q9NZQ7 19-238 limits assumed): as the sequence (Q9NZQ7 19-238 limits assumed) above

Row | percent (%) inhibition of PD-1/PD-L1 interaction [1] | blocking of PD-1/PD-L1 interaction (summary of the foregoing assay results) (PD-1/PD-L1 interaction [3]) | Compound | toxicity to mice (tumour cell line LL/2) | IL-2 concentration (PD-1/PD-L1 interaction [2]) | IL-2 concentration (PD-1/PD-L1 interaction [3])
1 |  |  | CSCC[C@@H](NC(=O)[C@@H](CO)NC(=O)[C@H]1CCCN1C(=O)[C@@H](CO)NC(=O)[C@@H](CC(N)=O)NC(=O)[C@@H](CCC(N)=O)NC(=O)[C@H](N)[C@H](C)O)C(=O)N[C@H](CCCNC(=N)N)C(=O)N[C@H](Cc1ccc(O)cc1)C(=O)N[C@H](Cc1c[nH]c2ccccc12)C(=O)O [D-TW, TQNSPSMRYW] | generally non-toxic |  | 
2 | the percent (%) inhibition increased | able to block PD-1/PD-L1 interaction | TAHPSPSPRSAGQF [TF] |  | yielded an increase in IL-2 concentration | yielded an increase in IL-2 concentration
3 | the percent (%) inhibition increased | able to block PD-1/PD-L1 interaction | WYRMSPSNQT [WT] |  |  | yielded an increase in IL-2 concentration
